From paper PMC10516938, “Conformational dynamics of cohesin/Scc2 loading complex are regulated by Smc3 acetylation and ATP binding” (Nature Communications, 2023)
Residue numbers refer to the chain shown, from its start.

Columns and labels:
Test in all cases: cross-linking; in vivo BMOE cross-link of cysteine pairs in exponentially grown yeast cells (on ice, 6 min); Scc1-PK immunoprecipitated, western blot
Details in all cases: partners not purified
Smc3 K38I R1222C = target: T1, Smc3 K38I R1222C (S. cerevisiae, UniProt P47037 1-1230, K38I | R1222C)
T1 construct: source: S. cerevisiae W303, in vivo, whole-cell extract
T1 sequence (looked up): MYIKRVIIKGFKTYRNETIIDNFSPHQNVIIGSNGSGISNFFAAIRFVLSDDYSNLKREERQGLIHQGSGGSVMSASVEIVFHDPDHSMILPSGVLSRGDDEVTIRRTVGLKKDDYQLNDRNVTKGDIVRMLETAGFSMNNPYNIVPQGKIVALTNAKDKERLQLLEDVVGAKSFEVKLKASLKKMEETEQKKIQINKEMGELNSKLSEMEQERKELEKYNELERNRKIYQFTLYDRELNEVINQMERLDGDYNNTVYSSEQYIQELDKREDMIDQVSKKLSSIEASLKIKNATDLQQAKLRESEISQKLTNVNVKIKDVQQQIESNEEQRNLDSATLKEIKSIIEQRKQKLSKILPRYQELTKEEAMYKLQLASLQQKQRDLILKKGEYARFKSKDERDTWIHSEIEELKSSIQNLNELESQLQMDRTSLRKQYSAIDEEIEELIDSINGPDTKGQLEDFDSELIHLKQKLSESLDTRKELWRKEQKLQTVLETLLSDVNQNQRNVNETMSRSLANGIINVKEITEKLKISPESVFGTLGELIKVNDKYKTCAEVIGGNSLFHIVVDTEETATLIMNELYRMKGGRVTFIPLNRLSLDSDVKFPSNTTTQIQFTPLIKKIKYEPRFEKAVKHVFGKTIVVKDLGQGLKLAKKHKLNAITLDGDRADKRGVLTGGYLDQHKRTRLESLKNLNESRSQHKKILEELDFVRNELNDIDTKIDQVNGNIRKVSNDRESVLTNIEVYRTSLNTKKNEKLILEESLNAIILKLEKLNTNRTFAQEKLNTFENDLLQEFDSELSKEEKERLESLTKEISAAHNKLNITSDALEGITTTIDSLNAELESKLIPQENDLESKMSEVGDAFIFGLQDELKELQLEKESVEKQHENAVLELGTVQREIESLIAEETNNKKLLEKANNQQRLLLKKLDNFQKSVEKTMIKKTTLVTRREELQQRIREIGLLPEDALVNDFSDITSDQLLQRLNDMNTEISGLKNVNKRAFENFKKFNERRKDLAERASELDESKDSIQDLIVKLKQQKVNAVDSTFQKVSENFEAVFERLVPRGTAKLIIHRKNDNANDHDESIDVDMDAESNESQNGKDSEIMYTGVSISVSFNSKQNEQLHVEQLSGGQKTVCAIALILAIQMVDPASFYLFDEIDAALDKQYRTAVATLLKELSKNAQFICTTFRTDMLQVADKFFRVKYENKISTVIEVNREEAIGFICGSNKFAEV

Smc3 R1222C = target: T2, Smc3 R1222C (S. cerevisiae, UniProt P47037 1-1230, R1222C)
T2 construct: Smc3, S. cerevisiae; source: S. cerevisiae W303, in vivo, whole-cell extract
T2 sequence (looked up): T1 sequence (looked up) with I38K

Smc3^QQ R1222C = target: T3, Smc3^QQ R1222C (S. cerevisiae, UniProt P47037 1-1230, K112Q | K113Q | R1222C)
T3 construct: Smc3, S. cerevisiae; source: S. cerevisiae W303, in vivo, whole-cell extract
T3 sequence (looked up): T1 sequence (looked up) with I38K, K112Q, K113Q

B1: Smc1 N1192C (natural protein, S. cerevisiae, UniProt P32908 1-1225, looked up)
chain: MGRLVGLELSNFKSYRGVTKVGFGESNFTSIIGPNGSGKSNMMDAISFVLGVRSNHLRSNILKDLIYRGVLNDENSDDYDNEGAASSNPQSAYVKAFYQKGNKLVELMRIISRNGDTSYKIDGKTVSYKDYSIFLENENILIKAKNFLVFQGDVEQIAAQSPVELSRMFEEVSGSIQYKKEYEELKEKIEKLSKSATESIKNRRRIHGELKTYKEGINKNEEYRKQLDKKNELQKFQALWQLYHLEQQKEELTDKLSALNSEISSLKGKINNEMKSLQRSKSSFVKESAVISKQKSKLDYIFKDKEKLVSDLRLIKVPQQAAGKRISHIEKRIESLQKDLQRQKTYVERFETQLKVVTRSKEAFEEEIKQSARNYDKFKLNENDLKTYNCLHEKYLTEGGSILEEKIAVLNNDKREIQEELERFNKRADISKRRITEELSITGEKLDTQLNDLRVSLNEKNALHTERLHELKKLQSDIESANNQEYDLNFKLRETLVKIDDLSANQRETMKERKLRENIAMLKRFFPGVKGLVHDLCHPKKEKYGLAVSTILGKNFDSVIVENLTVAQECIAFLKKQRAGTASFIPLDTIETELPTLSLPDSQDYILSINAIDYEPEYEKAMQYVCGDSIICNTLNIAKDLKWKKGIRGKLVTIEGALIHKAGLMTGGISGDANNRWDKEEYQSLMSLKDKLLIQIDELSNGQRSNSIRAREVENSVSLLNSDIANLRTQVTQQKRSLDENRLEIKYHNDLIEKEIQPKITELKKKLDDLENTKDNLVKEKEALQNNIFKEFTSKIGFTIKEYENHSGELMRQQSKELQQLQKQILTVENKLQFETDRLSTTQRRYEKAQKDLENAQVEMKSLEEQEYAIEMKIGSIESKLEEHKNHLDELQKKFVTKQSELNSSEDILEDMNSNLQVLKRERDGIKEDIEKFDLERVTALKNCKISNINIPISSETTIDDLPISSTDNEAITISNSIDINYKGLPKKYKENNTDSARKELEQKIHEVEEILNELQPNARALERYDEAEGRFEVINNETEQLKAEEKKILNQFLKIKKKRKELFEKTFDYVSDHLDAIYRELTKNPNSNVELAGGNASLTIEDEDEPFNAGIKYHATPPLKRFKDMEYLSGGEKTVAALALLFAINSYQPSPFFVLDEVDAALDITNVQRIAAYIRRHRNPDLQFIVISLKCTMFEKSDALVGVYRQQQENSSKIITLDLSNYAE
notes: Smc1, S. cerevisiae; source: S. cerevisiae W303, in vivo, whole-cell extract
crosslinking efficiency (Smc3 K38I R1222C): 5%
crosslinking efficiency (Smc3 R1222C): ~23%
crosslinking efficiency (Smc3^QQ R1222C): 24%
